Source: the supplement of paper PMC10567573

B1: FLOT1 (parent)
chain: QMAKKAEAFQLYQEAAQLDMLLEK

Variants of: B1
Experiment: protein stability index of a GFP-peptide fusion (GPS, HEK-293T) (PSI 1-6); higher = more stable
Conditions: c terminus: a fixed tail appended
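Further: lentivirally expressed fusions sorted by FACS into six bins by GFP to DsRed ratio, PSI derived from sequencing read proportions per bin multiplied by bin number.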

Protein stability index of substitutions, site by site:
Q13: P 3.87; N 3.82; G 3.57; E 2.92; M 3.5; T 2.85; H 3.6; R 2.81; I 2.49; Y 1.96; D 4.08; F 1.52; L 3.2; C 2.46; K 2.62; S 1.8
A8: P 1.98; F 3.96; M 2.88; Q 1.64; L 2.55; S 1.49; T 1.83; N 1.4; Y 1.03; E 2.49; C 1.7; V 1.2; H 1.42; I 2.05; W 1.91
L21: F 2.35; P 4.51; M 1.84; C 2.9; D 2.58; Y 2.04; K 2.19; G 4.02; Q 1.75; N 3.38; V 2.35; T 2.97; H 3.47; R 3.19; A 2.09; S 3.46; W 1.69; E 2.7; I 2
L11: E 3.48; P 4.05; Y 1.81; N 2.1; M 1.59; F 2.15; H 3.32; A 2.03; C 1.92; D 1.82; V 2.98; S 2.23; K 3.17; G 1.76; I 2.85
A16: Q 3.31; E 3.98; R 3.45; L 2.63; P 4.27; W 1.35; H 3.3; M 2.79; G 4.14; K 3.59; S 3.68; D 3.24; N 2.45; T 1.85; V 1.1; I 1.44; Y 1.93
L22: W 1.5; C 2.42; E 1.61; T 3.36; I 1.72; H 2.48; P 3.9; Q 2.08; M 2.02; Y 1.5; N 2.03; G 3.76; S 2.63; F 2.23; R 2.42; D 2.54; V 2.33; K 3.07; A 1.32
E7: S 4; D 1.55; H 2.24; Y 1.8; A 2.46; I 1.4; T 1.36; C 1.86; M 1.64; R 1.22; P 2.07; L 2.95; N 2.05; V 1.91
M20: R 2.98; L 1.85; I 3.46; C 1.97; K 2.55; V 2.38; H 2.94; Q 3.1; F 2.25; D 4.03; S 3.69; P 4.52; T 3.22; Y 2.08; N 2.47; E 3.76; A 2.75; G 3.94
A15: Y 2.21; I 2.1; V 2.33; D 4.62; H 2.2; R 2.92; N 2.32; M 1.24; S 2.49; W 2.68; P 4.27; F 2.24; Q 1.44; K 1.56; E 4.04; C 2.65; T 2.76
Q17: D 3.81; W 4.61; E 1.89; K 1.65; F 2.6; I 1.72; P 3.95; R 2.46; M 1.02; V 1.14; L 1.58; C 1.71; A 1.47; S 1.88; T 1.19
D19: T 2.66; I 1.5; N 1.91; Q 1.83; C 2.13; K 1.65; V 3.13; G 1.48; P 3.95; L 1.24; A 2.65; R 1.53; H 1.8; F 1.69; S 1.29; W 1.34; Y 2.35; M 2.85; E 1.87
F9: D 3.04; M 1.72; Q 1; A 2; H 2.26; P 2.08; T 2.11; I 1.88; L 2.37; C 1.41; K 2.63; W 1.86; N 1.82; S 2.01; E 3.65
Y12: H 2.98; G 4.56; K 4.88; N 4.47; L 2.03; S 4.55; T 4.17; F 1.67; R 4.75; D 4.96; P 5.08; C 3.06; A 4.22; I 2.62; E 4.41
K5: I 2.49; R 2.3; T 2.01; E 2.21; P 2.83; C 2.68; S 1.22; Q 1.59; G 1.92; N 1.42; F 2.8; V 1.78; H 1.75; D 2.1; L 3.38
A6: W 2.21; D 1.57; P 2.37; E 1.92; N 3.7; K 2.43; V 1.75; Y 1.53; R 1.52; H 1.99; M 1.32; F 1.99; T 1.38; C 1.53; Q 1.91
Q10: L 2.09; E 2.49; P 2.08; D 2.01; G 1.72; S 2.06; A 2.07; K 1.32; T 2.79; H 2.03; N 2.03; M 1.52; V 2.87; R 1.87; F 1.28; C 1.74; Y 2.59
E14: S 2.03; L 1.97; P 3.12; H 1.94; C 2.61; A 1.3; T 1.97; I 3.03; D 2.13; K 1.83; R 2.21; Y 2.71; N 2.5; G 2.58; W 1.96; Q 1.36
E23: Q 1.75; T 1.51; M 1.28; P 3.12; D 3.79; L 2.21; S 2.53; R 1.39; F 1.72; N 2.35; V 1.98; Y 1.81; I 1.62; W 1.98; K 2.11; C 2.27; H 2.15; A 2.29; G 3.26
K24: H 2.67; C 2.28; D 3.76; V 1.73; A 2.53; Y 2.35; M 2.23; P 3.37; R 2.13; E 4.03; F 2.2; N 2.83; T 3.03; S 3.36; W 2.57; L 2.08; I 3.41; G 2.89; Q 2.55
K4: V 1.47; Y 2.25
L18: W 2.03; A 1.85; M 2.22; Y 1.46; D 3.52; V 1.85; C 3.66; G 3.8; N 2.66; P 3.9; I 2.17; S 2.51; F 2.13; E 3.61; H 1.83; T 3.56; K 2.9
